Measured values reported in the RNAGym collection of RNA variant scans (doi:10.7554/elife.80360).

B1: Twister Ribozyme (parent)
chain: AACACUGCCAAUGCCGGUCCCAAGCCCGGAUAAAAGUGGAGGGGGCGG

Variants of: B1
Assay: self-cleavage, relative activity (ratio to wild type); higher = more cleavage; co-transcriptional

Row | Variant | self-cleavage
1 | AACACUGCCAAUGCCGGUCCGAAGCCCGGAUAAAAGAGGAGGGGGCGG | 0.101
2 | AACACUGCCAAUGCCGGUCCGAAGCCCGGAUAAAAGCGGAGGGGGCGG | 0.0765
3 | AACACUGCCAAUGCCGGUCUCAAGCCCGGAUAAAAGUGGAGGGGGCGA | 0.907
4 | AACACUGCCAAUGCCGGUCUCAAGCCCGGAUAAAAGUGGAGGGGGCGU | 0.963
5 | AACACUGCCAAUGCCGGUCCGAAGCCCGGAUAAAAGUCGAGGGGGCGG | 0.0966
6 | AACACUGCCAAUGCCGGUCCGAAGCCCGGAUAAAAGUUGAGGGGGCGG | 0.0824
7 | AACACUGCCAAUGCCGGUCCAAAGCCCGGAUAAAAUUGGAGGGGGCGG | 0.0686
8 | AACACUGCCAAUGCCGGUCCAAAGCCCGGAUAAAACUGGAGGGGGCGG | 0.109
9 | AACACUGCCAAUGCCGGUCCGAAGCCCUGAUAAAAGUGGAGGGGGCGG | 0.0788
10 | AACACUGCCAAUGCCGGUCCGAAGCCCAGAUAAAAGUGGAGGGGGCGG | 0.124
11 | AACACUGCCAAUGCCGGUCCGAAGCCCCGAUAAAAGUGGAGGGGGCGG | 0.0382
12 | AACACUGCCAAUGCCGGUCCGAAGCCCGGAUAAAAGUGGAGGGGCCGG | 0.0674
13 | AACACUGCCAAUGCCGGUCCGAAGCCCGGAUAAAAGUGGAGGGGUCGG | 0.0493
14 | AACACUGCCAAUGCCGGUCCGAAGCCCGGAUAAAAGUGGAGGGGACGG | 0.114
15 | AACACUGCCAAUGCCGGUCCUAAGCCCGGAUAAAUGUGGAGGGGGCGG | 0.115
16 | AACACUGCCAAUGCCGGUCCAAAGCCCGGGUAAAAGUGGAGGGGGCGG | 0.0944
17 | AACACUGCCAAUGCCGGUCUCAAGCCCGGAGAAAAGUGGAGGGGGCGG | 0.873
18 | AACACUGCCAAUGCCGGUCUCAAGCCCGGACAAAAGUGGAGGGGGCGG | 1.03
19 | AACACUGCCAAUGCCGGUCCGAAGCCCGGAUCAAAGUGGAGGGGGCGG | 0.0636
20 | AACACUGCCAAUGCCGGUCCGAAGCCCGGAUGAAAGUGGAGGGGGCGG | 0.0254
21 | AACACUGCCAAUGCCGGUCCAAAGCCCGGAUAAAGGUGGAGGGGGCGG | 0.0738
22 | AACACUGCCAAUGCCGGUCCAAAGCCCGGAUAAACGUGGAGGGGGCGG | 0.083
23 | AACACUGCCAAUGCCGGUCCUAAGCCCGGAUCAAAGUGGAGGGGGCGG | 0.107
24 | AACACUGCCAAUGCCGGUCCUAAGCCCGGAUUAAAGUGGAGGGGGCGG | 0.127
25 | AACACUGCCAAUGCCGGUCCUUAGCCCGGAUAAAAGUGGAGGGGGCGG | 0.072
26 | AACACUGCCAAUGCCGGUCCAAAGCCCGGAUAAAAGCGGAGGGGGCGG | 0.115
27 | AACACUGCCAAUGCCGGUCCAAAGCCCGGAUAAAAGGGGAGGGGGCGG | 0.0471

Row | Variant | self-cleavage
28 | AACACUGCCAAUGCCGGUCCAAAGCCCGGAUAAAAGUGGAGGGGGGGG | 0.173
29 | AACACUGCCAAUGCCGGUCCAAAGCCCGGAUAAAAGUGGAGGGGGAGG | 0.0995
30 | AACACUGCCAAUGCCGGUCCAAAGCCCGGAUAAAAGUGGAGGGGGUGG | 0.13
31 | AACACUGCCAAUGCCGGUCCUAAGCCCGGAUAAAAGUGGAGGGGGCGG | 0.129
32 | AACACUGCCAAUGCCGGUCCAAAGCCCGGAUAAAAGUGGAGGGGGCGG | 0.13
33 | AACACUGCCAAUGCCGGUCCGAAGCCCGGAUAAAAGUGGAGGGGGCGG | 0.0865
34 | AACACUGCCAAUGCCGGUCCUAAGCCCGGAUAAGAGUGGAGGGGGCGG | 0.0608
35 | AACACUGCCAAUGCCGGUCCUAAGCCCGGAUAAUAGUGGAGGGGGCGG | 0.11
36 | AACACUGCCAAUGCCGGUCCAAAGCCCGGAUAAAAGUGAAGGGGGCGG | 0.0763
37 | AACACUGCCAAUGCCGGUCCAAAGCCCGGAUAAAAGUGUAGGGGGCGG | 0.0973
38 | AACACUGCCAAUGCCGGUCCUAAACCCGGAUAAAAGUGGAGGGGGCGG | 0.102
39 | AACACUGCCAAUGCCGGUCCAUAGCCCGGAUAAAAGUGGAGGGGGCGG | 0.0641
40 | AACACUGCCAAUGCCGGUCCAAAGCCCGGAUAAAAGUGGUGGGGGCGG | 0.0782
41 | AACACUGCCAAUGCCGGUCCAAAGCCCGGAUAAAAGUGGCGGGGGCGG | 0.0907
42 | AACACUGCCAAUGCCGGUCCGAAGCGCGGAUAAAAGUGGAGGGGGCGG | 0.0411
43 | AACACUGCCAAUGCCGGUCCUAAGCCCGGUUAAAAGUGGAGGGGGCGG | 0.141
44 | AACACUGCCAAUGCCGGUCCUAAGCCCGGCUAAAAGUGGAGGGGGCGG | 0.0806
45 | AACACUGCCAAUGCCGGUCCUAAGUCCGGAUAAAAGUGGAGGGGGCGG | 0.0856
46 | AACACUGCCAAUGCCGGUCCGAAGCCCGGAUAAAAGUGAAGGGGGCGG | 0.0549
47 | AACACUGCCAAUGCCGGUCCGAAGCCCGGAUAAAAGUGCAGGGGGCGG | 0.128
48 | AACACUGCCAAUGCCGGUCCAAAGCCAGGAUAAAAGUGGAGGGGGCGG | 0.0685
49 | AACACUGCCAAUGCCGGUCCAAAGCCGGGAUAAAAGUGGAGGGGGCGG | 0.0914
50 | AACACUGCCAAUGCCGGUCCAAAGCCUGGAUAAAAGUGGAGGGGGCGG | 0.0904
51 | AACACUGCCAAUGCCGGUCCGAAGCCAGGAUAAAAGUGGAGGGGGCGG | 0.0855
52 | AACACUGCCAAUGCCGGUCCAAAGCCCGUAUAAAAGUGGAGGGGGCGG | 0.134
53 | AACACUGCCAAUGCCGGUCCGAAGCCCGGAUAAAAGUGGCGGGGGCGG | 0.0546
54 | AACACUGCCAAUGCCGGUCCGAAGCCCGGAUAAAAGUGGGGGGGGCGG | 0.0831
